# Measured values reported in patent US20130165347.
# System: Terminal deoxynucleotidyl transferase (TdT, pCMV-TdT / pMTdT)
# Experiment: cell_activity
# Settings: wild-type CHO KA8 cells, 19 of 27 clones, I-SceI-cleaved ends; 4% without TdT; N addition absent in Ku80- or XRCC4-deficient cells
sequence,measurement,value
TACCCTGTTATCCCTA (double strand),activity (% junctions with N additions),70
